Here are results for twelve molecules from patent US20210130452A1 (Merck KGaA, published 2021).

Experiment [1] deals with T1, human IL-17A (human, UniProt Q16552 24-155, biotinylated with Sulfo-NHS-LC-Biotin in the AlphaScreen assays only). Put plainly: cell-based or functional assay.
For experiment [2], the target named is T1, human IL-17A. In words: AlphaScreen competition, hIL-17A - IL-17RA-Fc. (In general: Bead proximity is the source of the signal in Alpha formats.)
Protocol: (§1) To this mixture, the IL-17RA or IL-17RC Fc-fusions, Acceptor beads and the streptavidin Donor beads were added and further incubated for 1 hour at RT.
Experiment [3] concerns the target T1, human IL-17A. Put plainly: AlphaScreen competition, hIL-17A - IL-17RC-Fc.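 Also: Read-out after 1 h at room temperature with the receptor Fc-fusion, Acceptor beads and streptavidin-coated Donor beads present.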
Protocol: as §1
Experiment [4] concerns the target T2, human IL-17A/F heterodimer (human, UniProt Q16552 24-155; Q96PD4 31-163, limits assumed, biotinylated with Sulfo-NHS-LC-Biotin in the AlphaScreen assays only).
T2 construct: also called hIL-17A/F
In words: AlphaScreen competition, hIL-17A/F - IL-17RA-Fc.
Protocol: as §1

Experiment [5] addresses T1, human IL-17A. Put plainly: SPR Biacore, hIL-17A on chip; periplasmic extract (*). A general note: SPR reads the build-up and loss of mass on a sensor chip optically.
Protocol: (§2) Off-rates of the periplasmic extracts containing anti-IL-17 Nanobodies were measured by Surface Plasmon Resonance (SPR) using a Biacore T100 instrument. […] Periplasmic extracts containing IL-17 neutralizing Nanobodies were injected for 2 minutes at a flow rate of 45 μl/min to allow binding to chip-bound antigen. Next, binding buffer without periplasmic extracts was sent over the chip at the same flow rate to allow spontaneous dissociation of bound Nanobody. From the sensorgrams obtained for the different periplasmic extracts koff-values (k₄) were calculated.
Experiment [6] deals with T3, human IL-17F (human, UniProt Q96PD4 31-163, biotinylated with Sulfo-NHS-LC-Biotin in the AlphaScreen assays only).
T3 construct: also called hIL-17F; recombinant human IL-17F
T3 sequence: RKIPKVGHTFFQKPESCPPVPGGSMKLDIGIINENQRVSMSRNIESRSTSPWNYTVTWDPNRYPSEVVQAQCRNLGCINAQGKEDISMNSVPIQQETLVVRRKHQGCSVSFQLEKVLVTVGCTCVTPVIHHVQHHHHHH
In words: SPR Biacore, hIL-17F on chip; periplasmic extract (*); NB = no binding.
Protocol: as §2

Experiment [7] concerns the target T2, human IL-17A/F heterodimer. In words: cell-based or functional assay.
Target sequence in this assay (Q16552 24-155 limits assumed, chain 1 of 2, one chain of several): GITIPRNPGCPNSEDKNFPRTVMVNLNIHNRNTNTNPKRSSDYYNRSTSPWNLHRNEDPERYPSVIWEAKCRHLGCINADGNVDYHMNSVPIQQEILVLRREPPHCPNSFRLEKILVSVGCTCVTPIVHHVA
The target of experiment [8] is T3, human IL-17F. In words: AlphaScreen competition, hIL-17F - IL-17RA-Fc.
Protocol: as §1
Experiment [9] deals with T3, human IL-17F. Put plainly: AlphaScreen competition, hIL-17F - IL-17RC-Fc.
Protocol: as §1
In experiment [10] the target is T1, human IL-17A. In words: SPR Biacore, hIL-17A on chip; purified protein.
Experiment [11] addresses T3, human IL-17F. Put plainly: SPR Biacore, hIL-17F on chip; purified protein.
Protocol: as §2
Experiment [12] addresses T2, human IL-17A/F heterodimer. Put plainly: AlphaScreen competition, hIL-17A/F - IL-17RC-Fc.
Protocol: as §1
The target in experiment [13] is T2, human IL-17A/F heterodimer. In words: SPR Biacore, hIL-17A/F on chip; purified protein.
For experiment [14], the target named is T4, human IL-17A (human, UniProt Q16552 24-155).
T4 construct: secreted form (GenBank U32659) expressed in Hek293 with C-terminal 6-His; also called hIL-17A; IL-17A-6HIS
In words: AlphaScreen IL-17A-IL-17RA, average.
T4 sequence (Q16552 other isoform, or with tags, fused parts or gaps): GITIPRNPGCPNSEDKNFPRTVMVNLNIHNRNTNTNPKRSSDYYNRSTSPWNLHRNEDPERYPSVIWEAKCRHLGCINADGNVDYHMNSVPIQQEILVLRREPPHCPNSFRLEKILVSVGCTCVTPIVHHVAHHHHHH

Experiment [15] has as its target T3, human IL-17F. In words: cell-based or functional assay.
Experiment [16] concerns the target T5, human IL-17A (human, UniProt Q16552 24-155).
T5 construct: secreted form made in Hek293 cells (GenBank U32659); also called hIL-17A; hIL17A
Put plainly: SPR (Biacore) off-rate.
T5 sequence (Q16552 other isoform, or with tags, fused parts or gaps): as above

The target of experiment [17] is T6, human IL-17F (human, UniProt Q96PD4 31-163).
T6 construct: made in Hek293 cells (GenBank AF384857); also called hIL-17F; hIL17F
T6 sequence: T3 sequence
Put plainly: SPR (Biacore) off-rate.

In experiment [18] the target is T7, human IL-17A/F heterodimer (human, UniProt Q16552 24-155; Q96PD4 31-163, limits assumed).
T7 construct: bought, made in E. coli (R&D Systems 5194-IL/CF); also called hIL-17A/F; hIL17A/F
Put plainly: SPR (Biacore) off-rate.

For experiment [19], the target named is T5, human IL-17A. Put plainly: AlphaScreen hIL-17A-IL-17RA; vs IL17MS13E02.
In experiment [20] the target is T6, human IL-17F. Put plainly: AlphaScreen hIL-17F-IL-17RC; vs IL17MS13E02.

Where a chain is given by its changes, count along the chain named. In names and notes the source's numbering stands.

T1 sequence (Q16552 other isoform, or with tags, fused parts or gaps): as above
T7 sequence (Q16552 24-155 limits assumed, chain 1 of 2, one chain of several): as the sequence (Q16552 24-155 limits assumed, chain 1 of 2, one chain of several) above

B1: 03E05 (VHH)
VHH: EVQLVESGGGLVQAGGSLRLSCAASGVTFDDYSIGWFRQAPGKEREGVSCISSSDGIPYYSDFVKGRFTTSIDNAKNTVYLQMNSLKPEDTAVYYCAAGFGRLCAEFDSWGQGTQVTVSS
notes: Class 1 Nanobody (anti-IL-17A); not shown: c-myc, His6 tag
With B1, the “IL-17A-induced IL-6 production in HT-1080 cells, Emax” value (“IL-17A-induced IL-6 production … Emax” for short) with human IL-17A [1] amounted to 100%. Further, the “IL-17A-induced IL-6 production in HT-1080 cells, IC50” value (“IL-17A-induced IL-6 production … IC50” below) in the experiment with human IL-17A [1] is 4 nM. For the same molecule, the concentration for half-maximal inhibition (IC50) with human IL-17A [2] is 0.058 nM; in the experiment with human IL-17A [3] it was 0.38 nM; in experiment [4], above 250 nM. The off-rate constant (koff) with human IL-17A [5] stood at 0.0001 s⁻¹. Moreover, the binding result in the experiment with human IL-17F [6] was “no binding”.

B2: 18B05 (VHH)
VHH: EVQLVKSGGGLVQPGGSLRLSCAASGGTFSLFAMGWFREAPGKEREFVAAIRWSDGSSYYADSVKGRFTISRDNAKNAVHLQSNSLKSEDTAVYYCYADVQGGLHRYWGQGTQVTVSS
notes: Class 4 Nanobody (cross-reactive: anti-IL-17A, IL-17F and IL-17A/F); not shown: c-myc, His6 tag
As for B2, in the experiment with human IL-17A [1], the “IL-17A-induced IL-6 production … Emax” value is 104%. Moreover, the “IL-17A-induced IL-6 production … IC50” value with human IL-17A [1] worked out at 20.6 nM. In addition, the “IL-17A/F-induced IL-6 production in HT-1080 cells, Emax” value in experiment [7] is 118%. Besides, the “IL-17A/F-induced IL-6 production in HT-1080 cells, IC50” value in experiment [7] worked out at 37.1 nM. The IC50 with human IL-17A [2] amounted to 0.173 nM; with human IL-17A [3], 0.408 nM; with human IL-17F [8], 36.6 nM; with human IL-17F [9] it was 13.3 nM; in [4], 0.231 nM; in experiment [12] it was 0.087 nM. Besides, the results for the koff (in the experiment with human IL-17A [10]; with human IL-17F [11]; in [13]) were 0.00022 s⁻¹, 0.14 s⁻¹ and 0.00012 s⁻¹, respectively.

B3: 17C01 (VHH)
VHH: EVQLVESGGRLVQAGGSLRLPCAASGRTFTSYPMGWFRQAPGKEREFVAAISMSGDDAAYADFVRGRFTISRDDARNTVYLHMTSLKPEDTAVYYCAARTSYDGTYDYIDDYSYWGQGTQVTVSS
notes: as for B2
For the molecule B3, the “IL-17A-induced IL-6 production … Emax” value with human IL-17A [1] was 105%. Besides, in the experiment with human IL-17A [1], the “IL-17A-induced IL-6 production … IC50” value was 15.1 nM. In addition, in experiment [7], the “IL-17A/F-induced IL-6 production in HT-1080 cells, Emax” value stood at 107%. Further, the “IL-17A/F-induced IL-6 production in HT-1080 cells, IC50” value in experiment [7] turned out to be 41.8 nM. The IC50 in the experiment with human IL-17A [2] came out at 0.066 nM; with human IL-17A [3], 0.169 nM; with human IL-17F [8], 0.296 nM; with human IL-17F [9], 0.168 nM; in experiment [4] it was 0.264 nM; in [12], 0.801 nM. In addition, the koff with human IL-17A [10] is 0.00029 s⁻¹; with human IL-17F [11] it was 0.056 s⁻¹; in experiment [13] it was 0.00075 s⁻¹.

B4: IL17MS3015 (VHH, name in Kabat numbering)
VHH: EVQLVESGGGLVQPGGSLRLSCTASGTIVNIHVMGWYRQAPGKQRELVALIFSGGSADYADSVKGRFTISRDNSKNTVYLQMNSLRPEDTAVYYCAAEIGYYSGGTYYSSEAHWGQGTLVTVSS
notes: basic + Q18L, A84P; Kabat positions
On to B4, for which, in the experiment with human IL-17A [14], the IC50 is 0.171 nM.

B5: IL17MS3016 (VHH, name in Kabat numbering)
VHH: B4 VHH with L18Q, T23A
notes: basic + T23A, A84P; Kabat positions
Consider B5, for which, in the experiment with human IL-17A [14], it took 0.177 nM to reach half-maximal inhibition (IC50).

B6: 01D02 (VHH)
VHH: EVQLVESGGGLVQAGGSLRLSCAASGLSFSSYALGWFRQAPGKERDFVAAINWSGDNTHYADSVKGRFTISRDNAKNTVSLQMNSLKPEDTAVYYCAAQLGYESGYSLTYDYDYWGQGTQVTVSS
notes: as for B1
On to B6, for which, in the experiment with human IL-17A [1], the “IL-17A-induced IL-6 production … Emax” value is 101%. In the experiment with human IL-17A [1], the “IL-17A-induced IL-6 production … IC50” value worked out at 4.8 nM. Besides, the IC50 with human IL-17A [2] came to 0.13 nM; with human IL-17A [3], 0.363 nM; in experiment [4], 71.7 nM; in [12] it was 94.7 nM. In addition, in the experiment with human IL-17A [5], the koff turned out to be 0.00044 s⁻¹. Further, the binding result with human IL-17F [6] is “no binding”.

B7: 16A04 (VHH)
VHH: EVQLVESGGGLVQAGGSLRLSCAASGRTFSSYVVGWFRQAPGKEREFIGAISGSGDSIYYAVSEKDRFTISRDNGKNTLYLQMSSLKAEDTAVYYCTADQEFGYLRFGRSEYWGQGTQVTVSS
notes: Class 3 Nanobody (anti-IL-17F); also called IL17MS16A04; not shown: c-myc, His6 tag
For the molecule B7, in the experiment with human IL-17F [15], the “IL-17F-induced IL-6 production in HT-1080 cells, Emax” value came out at 100%. The “IL-17F-induced IL-6 production in HT-1080 cells, IC50” value in the experiment with human IL-17F [15] worked out at 112 nM. For the same molecule, the “IL-17A/F-induced IL-6 production in HT-1080 cells, Emax” value in experiment [7] was found to be 95%. In addition, in experiment [7], the “IL-17A/F-induced IL-6 production in HT-1080 cells, IC50” value came to 48.2 nM. Also, the IC50 with human IL-17A [2] is above 77.9 nM; with human IL-17A [3], above 131 nM; with human IL-17F [8] it was 1.09 nM; with human IL-17F [9] it was 0.052 nM; in experiment [4] it was 90.4 nM; in [12] it was 0.389 nM. Moreover, the koff with human IL-17F [11] worked out at 0.00053 s⁻¹; in experiment [13] it was 0.003 s⁻¹.

B8: 02E03 (VHH)
VHH: EVQLVESGGGLVQPGGSLRLSCAASGFTFSSYAMSWARQAPGEGLEWVSDINSGGTRTTYADSVKGRFTISRDNAKNTLYLQMNSLKPEDTAVYVCAKLSVFRSQLGGKYYGGDYENRGQGTQVTVSS
notes: as for B1
For B8, the “IL-17A-induced IL-6 production … Emax” value with human IL-17A [1] was 99.3%. The “IL-17A-induced IL-6 production … IC50” value with human IL-17A [1] was 16.4 nM. In addition, the IC50 is 0.256 nM in the experiment with human IL-17A [2], 0.778 nM with human IL-17A [3] and above 250 nM in [12]. This molecule came in with an off-rate constant (koff) with human IL-17A [5] of 0.0009 s⁻¹. In the experiment with human IL-17F [6], the binding result is on record as “no binding”.

B9: IL17MS3034 (VHH)
VHH: EVQLVESGGGLVQAGGSLRLSCAASGRTYDALGWLRQAPGKEREFVAAISGSGDDTYYADSVKGRFTISKDNAGITMYLQMNSLKPEDTAVYYCATRRGLYYVWDSNDYENWGQGTQVTVSS
notes: variant of IL17MS13E02; Kabat numbering
As to B9, the koff with human IL-17A [16] came out at 0.000116 s⁻¹; with human IL-17F [17] it was 0.00596 s⁻¹; in [18] it was 4.02e-05 s⁻¹. Further, the “IC50 fold difference vs WT” value with human IL-17A [19] was found to be 1.68 fold; with human IL-17F [20], 2.7 fold.

B10: IL17MS3037 (VHH)
VHH: B9 VHH with L32M, S106A
notes: as for B9
For B10, the koff was 0.000116 s⁻¹ in the experiment with human IL-17A [16], 0.00367 s⁻¹ with human IL-17F [17] and 4.67e-05 s⁻¹ in [18]. The “IC50 fold difference vs WT” value was 1.61 fold with human IL-17A [19] and 1 fold with human IL-17F [20].

B11: IL17MS3035 (VHH)
VHH: B9 VHH with L32M, M77L
notes: as for B9
On to B11, for which the figures for the koff (with human IL-17A [16]; with human IL-17F [17]; in [18]) were 7.59e-05 s⁻¹, 0.00431 s⁻¹ and 3.65e-05 s⁻¹, respectively. Moreover, the “IC50 fold difference vs WT” value with human IL-17A [19] was 2 fold; with human IL-17F [20] it was 1.22 fold.

B12: IL17MS3036 (VHH)
VHH: B9 VHH with L32M, S106T
notes: as for B9
On to B12, for which the values for the koff (with human IL-17A [16]; with human IL-17F [17]; in [18]) were 0.000132 s⁻¹, 0.0044 s⁻¹ and 4.31e-05 s⁻¹, respectively. Besides, the “IC50 fold difference vs WT” value with human IL-17A [19] worked out at 2.06 fold; in the experiment with human IL-17F [20] it was 2.2 fold.

As usually defined, the IC50 is the concentration that gives 50% inhibition. One may read the koff as the first-order rate constant of dissociation. The low end stands for slow dissociation, the high end for fast dissociation.
